Measured values as given in article PMC10599278.

Settings: ubiquitination at K213

In the case of IGF2BP3: K213R, the other is reported as “decreases”.
